These results are taken from patent publication US20220275097A1 (SHANGHAITECH UNIVERSITY, published 2022).

In assay [1] the target is T1, extracellular domain of the human leptin receptor (human, UniProt P48357 22-839).
T1 construct: extracellular domain; a tag is not mentioned for the ELISA and cross-linking experiments; also called hECD; recombinant leptin receptor extracellular domain
T1 sequence (looked up): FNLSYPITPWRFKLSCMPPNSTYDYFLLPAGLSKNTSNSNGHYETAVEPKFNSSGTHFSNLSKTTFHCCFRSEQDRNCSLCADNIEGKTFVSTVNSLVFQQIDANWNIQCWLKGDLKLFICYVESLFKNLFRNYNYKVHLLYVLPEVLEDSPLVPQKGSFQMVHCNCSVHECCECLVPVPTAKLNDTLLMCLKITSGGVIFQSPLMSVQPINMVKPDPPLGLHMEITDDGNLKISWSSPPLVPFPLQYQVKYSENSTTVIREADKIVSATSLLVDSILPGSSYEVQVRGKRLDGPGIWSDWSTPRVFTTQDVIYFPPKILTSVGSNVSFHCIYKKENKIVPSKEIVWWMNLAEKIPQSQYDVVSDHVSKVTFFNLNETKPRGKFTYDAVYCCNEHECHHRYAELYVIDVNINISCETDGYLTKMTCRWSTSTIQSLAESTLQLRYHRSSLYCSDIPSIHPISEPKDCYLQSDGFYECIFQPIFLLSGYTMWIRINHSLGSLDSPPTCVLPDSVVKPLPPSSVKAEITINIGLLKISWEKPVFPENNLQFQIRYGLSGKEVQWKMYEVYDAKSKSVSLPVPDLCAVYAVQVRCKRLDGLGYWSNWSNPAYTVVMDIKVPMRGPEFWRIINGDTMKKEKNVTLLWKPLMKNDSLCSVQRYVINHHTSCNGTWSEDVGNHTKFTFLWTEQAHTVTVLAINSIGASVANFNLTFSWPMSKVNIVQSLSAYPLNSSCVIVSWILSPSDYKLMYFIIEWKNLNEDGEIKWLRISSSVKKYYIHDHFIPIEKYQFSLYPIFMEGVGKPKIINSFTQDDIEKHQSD
The assay is described as follows: SPR, Biacore T200; His-tagged leptin receptor ECD amine-coupled on a CM5 chip, binder as analyte. Here is the method: The SPR binding assays were performed using the Biacore T200™ (GE Healthcare). […] All manipulations were performed as described in the user guide of the manufacturer. The analysis of the results were processed in BIA evaluation Software™.
(In general: Surface plasmon resonance follows binding to a sensor surface in real time, without labels.)

Assay [2] deals with T1, extracellular domain of the human …. The assay is described as follows: SPR; leptin receptor ECD immobilized, antibody as analyte.
Assay [3] addresses T2, N terminal domain (NTD) of the leptin receptor extracellular domain, F22-Q121 (human, UniProt P48357 22-121).
T2 sequence: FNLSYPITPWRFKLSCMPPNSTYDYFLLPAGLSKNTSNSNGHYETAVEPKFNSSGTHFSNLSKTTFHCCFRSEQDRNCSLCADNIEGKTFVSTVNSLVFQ
The assay is described as follows: ELISA of S2H6 on purified subdomains of the leptin receptor extracellular domain, OD405; antibody concentration not given. The source says:
(§1) To test ability if the antibody to bind these domains, these subdomain were used in an ELISA-based biding assay.
For orientation: An ELISA detects its analyte on a solid surface through an enzyme-linked reagent.

For assay [4], the target named is T3, first cytokine receptor homology domain (CRH1) of the leptin receptor extracellular domain, Q122-V333 (human, UniProt P48357 122-333).
T3 construct: Expressed and purified subdomain
T3 sequence: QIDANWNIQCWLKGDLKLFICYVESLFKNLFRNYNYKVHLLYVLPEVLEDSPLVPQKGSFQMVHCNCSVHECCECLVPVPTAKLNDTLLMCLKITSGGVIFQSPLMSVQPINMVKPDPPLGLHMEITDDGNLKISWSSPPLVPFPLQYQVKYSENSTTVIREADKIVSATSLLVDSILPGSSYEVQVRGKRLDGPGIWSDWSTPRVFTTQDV
Described as above.
Source text: as §1

Assay [5] deals with T4, immunoglobulin-like domain (IgD) of the leptin receptor extracellular domain, I334-V427 (human, UniProt P48357 334-427).
T4 construct: Expressed and purified subdomain
T4 sequence: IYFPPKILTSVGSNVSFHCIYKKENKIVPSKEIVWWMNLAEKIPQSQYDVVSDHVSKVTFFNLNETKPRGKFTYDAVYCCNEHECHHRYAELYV
The assay is described as above.
Source text: as §1

Assay [6] addresses T5, fibronectin type III domains (FNIII) of the leptin receptor extracellular domain, I636-D839 (human, UniProt P48357 636-839).
T5 construct: Expressed and purified subdomain
T5 sequence: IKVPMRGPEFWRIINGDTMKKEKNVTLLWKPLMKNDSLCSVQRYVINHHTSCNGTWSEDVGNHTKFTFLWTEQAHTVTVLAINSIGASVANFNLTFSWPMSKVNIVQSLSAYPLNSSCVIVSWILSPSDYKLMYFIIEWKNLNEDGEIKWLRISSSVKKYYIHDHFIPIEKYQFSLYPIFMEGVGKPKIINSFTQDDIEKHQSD
The assay is described as above.
Source text: as §1

B1: S1scAb06 (antibody, V domains shown)
VH: QVQLVESGGGVVQPGRSLRLSCAASGFTFSSYGMHWVRQAPGKGLEWVAVISYDGSNKYYADSVKGRFTISRDNSKNTLYLQMNSLRAEDTAVYYCAKSLRNSFDYWGQGTLVTVSS
VL: EIVLTQSPGTLSLSPGERATLSCRASQSVSSNYLAWYQQKPGQAPRLLIYGASSRPTGIPDRFSGSGSGTDFTLTISRLEPEDFAVYYCQQYAASPLTFGGGTKLEIK
notes: also called S1scAb6; 51scAb06
In the case of B1, in assay [1], the Kd was found to be 7.47 nM, the koff is 0.0516 s⁻¹ and the kon was 6.91e+06 M⁻¹ s⁻¹.

B2: S2H1 (antibody, V domains shown)
VH: QVQLLQSGGGVVQPGRSLRLSCAASGFTFSSYGMHWVRQAPGKGLEWVAVISYDGSNKYYADSVKGRFTISRDNSKNTLYLQMNSLRAEDTAVYYCASLYENYFSLWGQGTLVTVSS
VL: EIVLTQSPGTLSLSPGERATLSCRASQSVSSNYLAWYQQKPGQAPRLLIYGASSRPTGIPDRFSGSGSGTDFTLTISRLEPEDFAVYYCQQYAASPLTFGGGTKLEIK
notes: also called SC2H1
As for B2, in assay [2], the dissociation constant Kd is 0.579 nM, the dissociation rate constant (koff) was determined as 0.000271 s⁻¹ and the association rate constant (kon) was determined as 468000 M⁻¹ s⁻¹.

B3: S2H5 (antibody, V domains shown)
VH: QVQLLQSGGGVVQPGRSLRLSCAASGFTFSSYGMHWVRQAPGKGLEWVAVISYDGSNKYYADSVKGRFTISRDNSKNTLYLQMNSLRAEDTAVYYCASRYENYFSLWGQGTLVTVSS
VL: EIVLTQSPGTLSLSPGERATLSCRASQSVSSNYLAWYQQKPGQAPRLLIYGASSRPTGIPDRFSGSGSGTDFTLTISRLEPEDFAVYYCQQYAASPLTFGGGTKLEIK
notes: also called SC2H5
In assay [2], B3 had an equilibrium dissociation constant (Kd) of 0.626 nM, a koff of 0.000164 s⁻¹ and a kon of 262000 M⁻¹ s⁻¹.

B4: S2H6 (antibody, V domains shown)
VH: QVQLLQSGGGVVQPGRSLRLSCAASGFTFSSYGMHWVRQAPGKGLEWVAVISYDGSNKYYADSVKGRFTISRDNSKNTLYLQMNSLRAEDTAVYYCASFQENYFTYWGQGTLVTVSS
VL: EIVLTQSPGTLSLSPGERATLSCRASQSVSSNYLAWYQQKPGQAPRLLIYGASSRPTGIPDRFSGSGSGTDFTLTISRLEPEDFAVYYCQQYAASPLTFGGGTKLEIK
notes: also called SC2H6
Turning to B4, the dissociation constant (Kd) in assay [2] and in assay [1] was 0.39 nM each time. The koff in assay [2] and in assay [1] was 0.000308 s⁻¹ each time. In addition, the kon in assay [2] and in assay [1] was 786000 M⁻¹ s⁻¹ in each case. Besides, the binding result in assay [3], in assay [4], in assay [5] and in assay [6] was “no binding” each time.

B5: S2H2 (antibody, V domains shown)
VH: QVQLLQSGGGVVQPGRSLRLSCAASGFTFSSYGMHWVRQAPGKGLEWVAVISYDGSNKYYADSVKGRFTISRDNSKNTLYLQMNSLRAEDTAVYYCATFRENYFEYWGQGTLVTVSS
VL: EIVLTQSPGTLSLSPGERATLSCRASQSVSSNYLAWYQQKPGQAPRLLIYGASSRPTGIPDRFSGSGSGTDFTLTISRLEPEDFAVYYCQQYAASPLTFGGGTKLEIK
notes: also called SC2H2; 52H2
In assay [2], B5 had a Kd of 0.355 nM, an off-rate (koff) of 0.000119 s⁻¹ and a kon of 336000 M⁻¹ s⁻¹.

B6: S2H7 (antibody, V domains shown)
VH: QVQLLQSGGGVVQPGRSLRLSCAASGFTFSSYGMHWVRQAPGKGLEWVAVISYDGSNKYYADSVKGRFTISRDNSKNTLYLQMNSLRAEDTAVYYCATRYENYFSTWGQGTLVTVSS
VL: EIVLTQSPGTLSLSPGERATLSCRASQSVSSNYLAWYQQKPGQAPRLLIYGASSRPTGIPDRFSGSGSGTDFTLTISRLEPEDFAVYYCQQYAASPLTFGGGTKLEIK
notes: also called SC2H7
With B6, in assay [2], the Kd stood at 0.639 nM, the koff turned out to be 0.000171 s⁻¹ and the kon amounted to 268000 M⁻¹ s⁻¹.

B7: S2H3 (antibody, V domains shown)
VH: QVQLLQSGGGVVQPGRSLRLSCAASGFTFSSYGMHWVRQAPGKGLEWVAVISYDGSNKYYADSVKGRFTISRDNSKNTLYLQMNSLRAEDTAVYYCAGVRENYFTYWGQGTLVTVSS
VL: EIVLTQSPGTLSLSPGERATLSCRASQSVSSNYLAWYQQKPGQAPRLLIYGASSRPTGIPDRFSGSGSGTDFTLTISRLEPEDFAVYYCQQYAASPLTFGGGTKLEIK
notes: also called SC2H3
In assay [2], B7 gave a Kd of 0.429 nM, a koff of 0.0002 s⁻¹ and an on-rate constant (kon) of 466000 M⁻¹ s⁻¹.

As a reminder, the Kd is the equilibrium constant for the complex coming apart. In general, koff refers to the rate constant with which the complex falls apart. Higher therefore signals a short-lived complex. In general, kon refers to a measure of how fast the partners come together. High values mean fast association, low ones slow association.
